Consider 41 sequences from the nanobody polyreactivity screen of Harvey et al. (2022).

A short description of this series: yeast display, Sf9 membrane polyspecificity reagent, FACS + sequencing; frameworks hold sequencing errors. An outline of the steps:
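A synthetic nanobody library was expressed on Saccharomyces cerevisiae BJ5465 by galactose induction for 36–48 hours. The library was stained for 1 hour at 4 °C with 10% biotinylated, detergent-solubilized Sf9 membrane reagent and enriched with streptavidin microbeads before FACS. Low and high (top ~1%) gates were set on anti-HA fluorescence for expression and streptavidin fluorescence for reagent binding, and each polyreactivity label reflects the gate of origin.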
Turning to “QVQLVESRGGLVQAGGSLRLSCAASGRTFEYNAMGWYRQAPGKERELVATIRYSGTSTYADSVKGRFTISRDNAKNTVYLQMNSLKPEDTAVYYCAKQVRYYGYKYNYWGQGTQVTVSS”, the “polyreactivity (PSR sort gate)” value is reported as “high polyreactivity”.
In the case of “QVQLVESGGCLVQAGGSLRLSCAASGRISVFYAMGWYRQAPGKERELVAAITRSGTTKYADSVKGRFTISRDNAKNTVYLQMNSLKPEDTAVYYCAVRRYRARFGYWGKGTQVTVSS”, the “polyreactivity (PSR sort gate)” value is on record as “high polyreactivity”.
Regarding “QVQLVESGGGLVQAGGSLRLSCAASGRIFPWNAMGWYRQAPGKDRELVAAISFSAGRTYYADSVKGRFTISRDNAKNTVYLQMNSLKPEDTAVYYCNARIGSPWVWTGIIGYEYWGQGTQVTVSS”, the “polyreactivity (PSR sort gate)” value was “low polyreactivity”.
For “QVQLVESGGGLVQAGGSLRLSCAASGSIFDRNAMGWYRQAPGKERELVAAISRSSGNTYYADSVKGRFTISRDNAKNTVYLQMNSLKPEDTAVYYCNKVDYWGQGTQVTVSS”, the “polyreactivity (PSR sort gate)” value is “high polyreactivity”.
As for “QVQLVESGGGLVQAGGTLRLSCAASGFIISRNAMGWYRQAPRKERELVAAITWPGGTTYYADSVKGRFTISRDNAKNTVYLQMISLKPEDTAVYYSAADEYGPHTFSPEYDSWGQGTQVTVSS”, the “polyreactivity (PSR sort gate)” value is given as “low polyreactivity”.
The value for “QVQLVESGGGLVQAGGSLRLSCAASGFIFGHYAMGWYRPAPGKERELVAGINSSGGSTHYADSVKGRFTISRDNAKNTVYLQMNSLKPEDTAVYYCAADVYRYYAGSRYYYWGQGTQVTVSS” was “low polyreactivity”.
As for “QVQLVESGGGVFQAGGTLSLSCAASGITFYPNDMGWYRQATGKETELVAAITTNDGDTYYADSVKGRFTISRDNAKNTVYLQMNSLKPEYTAVYYCAADSGSTSEYEYWGQGTQVTVSS”, the “polyreactivity (PSR sort gate)” value was “low polyreactivity”.
In the case of “QVQLVESGGGLVQAGGSLRLSCAASGFTFYGYAMGWYRQAPGKERELVAAITSGGSTNYADSVKGRFTISRDNAKNTVYLQMNSLKPEDTAVYYCAASPSYWYLYVNYSYDYWGQGTQVTVSS”, the “polyreactivity (PSR sort gate)” value is “high polyreactivity”.
The entry for “QVQLVESGGGLVQAGGSLRLSCAASGSTFYYYAMGWYRQAPGKEREFVAAISWRGGSTYYADSVKGRFTISRDNAKNTVYLQMNSLKPEDTAVYYCAATTLYRGVYYRIFGWGYERGHWGQGTQVTVSS” is “low polyreactivity”; for “QVQLVESGGCLVQAGGSLRLSCAASGRIFQSYAMGWYRQAPGKESELVAAISQSGGSTYYADSVQGRFTISRDNAKNTVYVQMNSLKPEDTAVYYCAARSRWYKRYDYWGQGTQVTVSS” it is “low polyreactivity”; for “QVQLVESGGGLVQAGGTLRLSCAASGFIFGINAMGWYRQAPGQERELVAAIATGDRTNYADSVTGRFTISRDNAKNTVYLQMNSLKPEHTAVYYCAAGVHWDRGDYWGQGTQVTVST” it is “low polyreactivity”.
Turning to “QVQLVESGGGLVQAGGSLRLSCAASGFIFNSNARGWYRQAPGKERELVAAISGLGGSTYYADSVKGRFTISRDNAKNTVYIQMNSLKPEDTAVYYCAADVTYGTKWAYDYWGQGTQVTVSS”, the “polyreactivity (PSR sort gate)” value was “high polyreactivity”.
“QVQLVESGGGLDQAGGSLRLSCAASGFIFRSYTMGWYRQEPRKEREFVPAITWTGGSTYYADSVKGRFTISRDNAKNTVYLQMNSLKPEDTAVYYCNAANWHYSTAPKPYAFDYWGQGTQVTVSS”: the “polyreactivity (PSR sort gate)” value is “low polyreactivity”.
The entry for “QVQLVESGGGLVQAGGSLRLSCSASGFIFWYYAMGWYRQAPGKERELVAAISSGGSTNYADSVKGRFAISRDNAKNTVYLQLNSLIPVDTAVYYCATSSIWGSARVRWVTYYYWGQGTQVTVSS” is “low polyreactivity”; for “QVQLVESGGGLVQAGGSLRLSCAASGYIFDIYAMGWYRQAPGKERELVAVITRSGGGTYYADSVKGRFTISRDNAKKTVYLQMNSLKPEDTAVYYCAAESYVYGGSDYDYWGQGTQVTVSS” it is “low polyreactivity”.
Turning to “QVQLVESGGGLVQAGGSLRLSCAASGRTSVSYAMGWYRQAPGKERELVASITSGGSTYYADSVKGRFTISRDNAKNTVYLQMNSLKPEDTAVYYCAARGRNVAGYKGGYWGQGTQVTVSS”, the “polyreactivity (PSR sort gate)” value is listed as “high polyreactivity”.
Take “QVQLVESGGGLVQAGGSLRLSCAASGIIFYDYAMGWYRQAPGKERELVAAISRSGGSTYYADSVKGRFTISRDNAKNTVYLQMNSLKPEDTAVYYCAKDRDFSSPPTESGFDYWGQGTQVTVSS”: the “polyreactivity (PSR sort gate)” value is given as “low polyreactivity”.
The value for “QVQLVESGGGLVQAGGSLRLSCAASGIIFRAYAMGWYRPAPGKERELVAAISRSGGSTYYADSVKGRFTISRDNAKNTVYLQMNSLKQEDTAVYYCAADTVWYLYYYWGQGSQVTVSS” was “high polyreactivity”; that for “QDQLVESGGGLVHAGGSLRLSCAASGSTFQYYVMGWYRQAPGKERELVAAITWSGGSTYYADSVKGRFTISRDNAKNTVYLQMNSLKPEDTAVYYCKAASGPDFEYEYWGEGTQVTVSS” was “low polyreactivity”; that for “QVQLVESGGGLVQAGASLRLSCADSGIIFQVYAMGWYRQAPGKERELVAAISDDGSTNYADSVKGRFTISRDNAKNTVYLQMNSLKPEDTAVYYCAKESWGRLYYRYDYWGQGTQVTVSS” was “low polyreactivity”.
The entry for “QVQLVESGGGLVQAGGSLRLSCAASGRIFVYNVMGRYRQAPGKERDLVAAISWGTGSTYADSVKGRFTISRDNAKNTVYLQMNSLKPEDTAVYYCAADSFIPPYDHWGLGTQVTVSS” is “low polyreactivity”; for “QVQLVESGGGLVQAGCSLRLTCAASGFTFYKYAMGWYRQAPGKERELVAAISRRGTSTYYADAVKGRFTISRDNAKNTVYLQMNSLKPEDTAVYYCNRDVSLSAFDYWGQGTQVTVSS” it is “high polyreactivity”; for “QVQLVESGGGIVQAGGSLRLSCAASGSTFGVYAMGWYRQAPGKERDLVSVIRRGGGTDYADSVKGRFTISRDNAKNTVYLQMNSLNPEVTAVYYCAATVVRSGYLTLEMDYWGQGTQVTVSS” it is “low polyreactivity”.
The value for “QVQLVESGGGLVQAGGSLRLSCAASGFTFDKYAMGWYRQAPGKERELVAAISNSGGRTYYADSVKGRFTISRDNAKNTVYLQMNSLKPEDTAVYYCTIFKDYDYWGQGTQVTVSS” was “high polyreactivity”.
With “QVQLVESGGGLVQAGGSLRLSCAASGSIFGFNTMGWYRQAPGKEMELVATINWSGGSTYYADSVKGRFTISRDNAKNTVYLQMNSLKPEDTAVYYCNAGPFSGRLFTTYASWGRYDYWGQGTQVTVSS”, the “polyreactivity (PSR sort gate)” value is given as “low polyreactivity”.
“QVQLVETGGGLVQAGGSLRLSCAPSGRTLTYYAMGWYRQAPGKERELVAAIRHSAGSTYYADSVKVRFTISRDNAKNSVYLLMNSLKPEVTAVYYCAKKYYGHRYPSIYDYWGQGTQVTVSS”: the “polyreactivity (PSR sort gate)” value is “high polyreactivity”.
Take “QVQLVESGGGLVQAGGSLRLSCAASGRTFWYNALGWYRQAPGKERELVAAISWSGGTTYYADSVKGRFTISRDNAKNTVYLQMNSLKPEDTAVYYCNAKYRGLAKYDYWGQGTQVTVSS”: the “polyreactivity (PSR sort gate)” value was “high polyreactivity”.
The entry for “QVELVVSGGGLVQAGGSLRLSCAAYGSIFLGNAMGWYRQAPGKEREFVAGIRGSAGTTSYADSVKGRFTISRDNAKNPGYLQMNSLKPEDTAVYYCAARPRHSDGYYYWGQGTEVTVSS” is “high polyreactivity”; for “QVQLVESGGGLVQAGGSLRLSCAASGSISPQNVMGWYRQAPGKERELVAAITWTGTSTYADSVKGSFTISRDNAKNTVYLQMNSLKPEDTAVYYCAARYYAPRWFRYDYWGQGTQVTVSS” it is “low polyreactivity”; for “QVQLVESGGGLVQAGGSLRLSCAASGSIFGLYVMGWDRQAPGKERELVATITSGGSTYYADSVKGRFTISRDNAKNTVYLQMNSLKPEDTAVYYCAADPQDAAYLKYLFYDYDYWGQGTQVTVSS” it is “low polyreactivity”.
In the case of “QVQLVESGGGLVQAGGSLRLSCAASGRTFGIYAMGWYRQAPGKERELVASISWSGGRTYYADSVKGRFTLSRDNAKNTVYLQMNSLKPEDTAVYYCAAYGVYYPRSWQYFDWYGYWGQGTQVTVSS”, the “polyreactivity (PSR sort gate)” value is on record as “high polyreactivity”.
The value for “QVRLVESGGGLVQAGGSLRLSCAASGSTFKTYAMGWYRQAPGKERELVAAISAGGGSTYYADSVKGRFTISRDNAKNTVYLQMYSLKPEDTAVYYCAAAYIYAGWDYEYWGQGTQVTVSS” was “low polyreactivity”; that for “QVQLVESGGGLVQAGGSLRLSCAASGSTFWDYAMGWYRQAPGKERELVASISSGGRTYYADSVKGRFTISRDNAKNTVYLQMNSLKPEDTAVYYCARRSWWDYYSWGQGTQVTVSS” was “high polyreactivity”; that for “QVQLVESGGGLVQAGGSLRLSCAASGLTFGRYAMGWYIQATGKERQLVASISQRGGSTYYADSVKGRFTISRDNAKNTVYLQMNSLKPEDTAVYYCNARVRDIYRYSMDSWGQGTQVTVSS” was “low polyreactivity”.
As to “QVQLVESGGGLVQAGGSLRISCAASGITFYGYAMGRYRQAPGKERELVATISKSGGITSYADSVKGRFTISRDNAKNTVYLQMNSLKPEDTAVYYCNRGKSYGGYDYWGQGTQVTVSS”, the “polyreactivity (PSR sort gate)” value is “low polyreactivity”.
The entry for “QVQLVESGGGLVQAGGSLRLSCAASGYIFVRYAMGWYRQAPGKEREFVAAISSSGGSTRYADSVKGRFTISRDNAKNTVYLQMNSLKPEDTAVYYCAATRVARHGSPMYYWGQGTEVTVSS” is “high polyreactivity”; for “QVQLEESGGGLVQAGGSLRLSCAASVSNLYYYPMGWYRQATRKERELVASIRNGGSTYYADSVKGLFTISRDNAKNTVYLQMNSLKPEDTAVYYCNARVSRSFRARYNYWGQGSQVTVSS” it is “high polyreactivity”; for “QVQLVESGGGLVQAGGSLRLSCAASGSTFDYNAMGWYRQAPGKERELVAAISRGGNTYYADSVKGRFTISRDNAKNTVYLQMNSLKPEDTAVYYCAKDSYGSYRFVRKRQKAYGYWGQGTQVTVSS” it is “low polyreactivity”.
The value for “QVQLVESGGGLVQAGGSLRLSCAASGIYINAMGWYRQAPGKERELVAAISRGGSTYYADSVKGRFTISRDNAKNTVYLKMNSLKPEDTAVYYCAKLIGRWRLYHTFVKGDYWGQGTQVTVSS” was “high polyreactivity”; that for “QVQLVESGGGLVQAGGSLRLSCAASGRTFYANAMGWYRQAPGKERELVAAITYRGGSTNYADSVKGRFTISRDNAKNTVYLQMNSLKPEDTAVYYCAKVYNPNYLWYLTYGYDYWGQGTQVTVSS” was “low polyreactivity”; that for “QVQLVESGGGLVQAGGSLRLTCAASARIFGYYVMGWSRQAPGKETELVAAIRSSADSTYYADSVKGRFTISRDNAKNTVYLQMNSLKPEDTAVYYCAAQSPAYYTKSYWGQGTQVTVSS” was “low polyreactivity”.
